T1: Fluorescently labeled recombinant Nogo-A-Δ20 (rat aa544-725) (rat, UniProt Q9JK11-1 544-725, fluorescent label (Amine Reactive Protein labeling kit RED, L001, Nano Temper technologies))
T1 construct: Nogo-A (Rtn4), rat, residues 544-725 (Nogo-A-Δ20 domain); not shown: T7 or HA (His-/T7- or His-/HA-tagged)
T1 sequence (looked up): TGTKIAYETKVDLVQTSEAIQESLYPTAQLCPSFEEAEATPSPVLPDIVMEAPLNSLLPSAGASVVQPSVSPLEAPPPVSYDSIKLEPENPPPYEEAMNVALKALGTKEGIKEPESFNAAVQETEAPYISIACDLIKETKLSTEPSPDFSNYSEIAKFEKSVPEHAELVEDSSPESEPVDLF

T2: Fluorescently labeled recombinant Nogo-A-Δ20 (rat aa544-725) (rat), Q9JK11
T2 chain: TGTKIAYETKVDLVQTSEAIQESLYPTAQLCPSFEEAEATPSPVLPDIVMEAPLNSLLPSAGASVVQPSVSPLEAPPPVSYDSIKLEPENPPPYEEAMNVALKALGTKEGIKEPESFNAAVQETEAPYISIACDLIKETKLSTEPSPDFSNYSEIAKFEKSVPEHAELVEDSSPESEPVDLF


Experiments:
[1] = target: T1, Fluorescently labeled recombinant …; test: MST; Monolith NT.115; fluorescently labeled Nogo-A-Δ20 constant (~40 nM), peptides serially diluted; PBS with 0.025% Tween-20, pH 7.4; LED 60%, IR laser 20%; non-linear regression with Hill coefficient 1.0; conditions: both partners purified
[2] = target: T2, Fluorescently labeled recombinant …; test: as above; conditions: remark: other sources report otherwise

| Kd [1] [µM] | Kd [2] [nM] | Binder |
| --- | --- | --- |
| ~11 |  | MGGLYSEYLNPEKVQEHYNYTKETLDMQETPSRK (Extracellular N-terminus of S1PR2; source: synthetic peptide (JPT Peptide Technologies)) [S1PR2 N-terminus peptide] |
|  | 280 | NCLNQLEACSTVLPLYAKHYVL (here or on the partner: fluorescent label (Amine Reactive Protein labeling kit RED, L001, Nano Temper technologies)) [S1PR2 extracellular loop 2 peptide] |
|  | 350 | SILLLDSTCPVRACPVLYK (here or on the partner: fluorescent label (Amine Reactive Protein labeling kit RED, L001, Nano Temper technologies)) [S1PR2 extracellular loop 3 peptide] |
| ~1.7 |  | LSGHVTLSLTPVQW (Extracellular loop 1 of S1PR2; also called ECL1; source: synthetic peptide (JPT Peptide Technologies)) [S1PR2 extracellular loop 1 peptide] |

— publication PMC3891622, “The Sphingolipid Receptor S1PR2 Is a Receptor for Nogo-A Repressing Synaptic Plasticity” (PLoS Biology, 2014)
